Results: US20240228986A1, “ENGINEERED CELLS, ENZYMES, AND METHODS FOR PRODUCING CANNABINOIDS” (priority 2021, published 2024)

Columns and labels:
Assay type in all cases: cell-based, Yarrowia
[1] = tested on: olivetolic acid; assay: MPT fusions with GPS1.1 vs unfused MPTs, OA feed (Example 8, Table 9); details: 2 mM olivetolic acid, 48 h quench
Summary of the method: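 Yeast strain sCL-SE-0128 carrying MPT or GPS1.1–MPT fusion plasmids, precultured 48 h in YNB/2% glucose/0.5% casamino acids/100 mM MES pH 6.5. Assay medium was the same plus 2 mM olivetolic acid, 30 °C. Cultures were ethanol-quenched at 48 h total growth, and CBGA and FCBGA were measured by HPLC-MS with internal standard; values are replicate means ± SD.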

[2] = tested on: hexanoic acid; assay: GPS-PKC-MPT fusions, hexanoic acid feed in vivo assay (Example 13); details: hexanoic acid 2.5 mM plus 5 mM after 24 h, 48 h quench; strain SB-00311 + pCL-SE-0274; average of 44 or 34 transformants
Protocol: Strain SB-00311 (HCS2, PKS1.1 and PKC1.1) was co-transformed with 1) a construct (pCL-SE-0274) for expression of HMGR and GPS1.1 and 2) a construct (pCL-SE-0406) for expression of a fusion protein that contains, from N- to C-terminus, GPS1.1 and MPT4 linked using the F11 linker sequence or a construct (pCL-SE-0474) for expression of a fusion protein that contains, from N- to C-terminus, GPS1.1, PKC1.1 and MPT4, each linked using the F11 linker sequence.
Transformants were assessed for CBGA production from hexanoic acid. Assay cultures consisted of YNBD+CAA media with 2.5 mM hexanoic acid. After 24 h, an additional 5 mM hexanoic acid was added to each assay culture. Cultures were quenched after 48 h total growth.
Overnight YPD (10 g/L yeast extract, 20 g/L peptone, 2% dextrose) cultures were inoculated from glycerol stocks of the appropriate strain and grown at 30° C. with 250 rpm shaking. Once cultures had reached an OD600 of 4-6, cultures were centrifuged at 500×g for 5 min, supernatants were discarded, and cell pellets were resuspended in equal volume of water. Resuspended cells were centrifuged at 500×g for 5 min, supernatants were discarded, and cells were resuspended in a volume (75 μL×OD×Vculture) of transformation cocktail (45% PEG-400, 0.1 M LiAc, 0.1 M DTT, and 25 ug/100 μL SS Salmon Sperm DNA). For each transformation, >1 μg of plasmid DNA was added to 55 μL cells/transformation cocktail and vortexed for 2 s. Transformations were incubated at 39° C. for 1 h with 250 rpm shaking. Transformations were resuspended in 750 μL YPD with 1 M sorbitol and recovered at 30° C. overnight with 250 rpm shaking. […] Precipitates were pelleted by centrifuging at 4600×g for 10 min and then 200 μL was transferred to fresh plates, sealed, and analyzed via HPLC.
All samples were quenched with equal volume of EtOH containing 0.2 mg/mL internal standard (3,5-Diisopropyl-2-hydroxybenzoic acid CAS #2215-21-6) centrifuged, and clarified solutions were analyzed by HPLC-MS […]

[3] = tested on: divarinic acid; assay: MPT fusions with GPS1.1 vs unfused MPTs, DVA feed (Example 9, Table 11); details: 2 mM divarinic acid, 2% glucose, quenched after 48 h; strain sCL-SE-0128
Summary of the method: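 Strain sCL-SE-0128 transformed with MPT or fused-MPT plasmids, several colonies each, precultured 48 h in YNB/glucose/casamino acids/MES pH 6.5. Assay medium carried 2 mM divarinic acid; cultures quenched with ethanol at 48 h total growth and CBGVA and FCBGVA quantified by HPLC-MS against internal standard, averaged over replicates.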

[4] = tested on: olivetolic acid; assay: Linkers for GPS1.1-MPT4 fusions, in vivo assay (Example 6); details: 1 mM olivetolic acid, 72 h quench
Protocol: As described in detail below, plasmids pCL-SE-0380 (MPT4), pCL-SE-0406, pCL-SE-0435, and pCL-SE-0437 were transformed into strain sCL-SE-0128. Four separate colonies per transformation were precultured for 24 h in YNB containing glycerol (2%), casamino acids (0.5%), and MES (100 mM pH 6.5). Pre-culture was used to inoculate assay medium comprised of YNB containing glycerol (2%), casamino acids (0.5%), MES (100 mM pH 6.5), and olivetolic acid (1 mM). Cultures were quenched after 72 h total growth by mixing with equal volume of EtOH. Enzymes produced CBGA and FCBGA. Averages and standard deviations were calculated from replicates.
However, sCL-SE-0128 expresses HMGR and GPS1.1 to increase intracellular GPP levels for prenylation of OA to CBGA. The plasmids that were transformed contain either a gene expressing a prenyl-transferase (pCL-SE-0380 (MPT4)) or a gene expressing a fusion between GPS1.1 and a prenyl-transferase with different linker sequences.
Overnight YPD (10 g/L yeast extract, 20 g/L peptone, 2% dextrose) cultures were inoculated from glycerol stocks of the appropriate strain and grown at 30° C. with 250 rpm shaking. Once cultures had reached an OD600 of 4-6, cultures were centrifuged at 500×g for 5 min, supernatants were discarded, and cell pellets were resuspended in equal volume of water. Resuspended cells were centrifuged at 500×g for 5 min, supernatants were discarded, and cells were resuspended in a volume (75 μL×OD×Vculture) of transformation cocktail (45% PEG-400, 0.1 M LiAc, 0.1 M DTT, and 25 ug/100 μL SS Salmon Sperm DNA). For each transformation, >1 μg of plasmid DNA was added to 55 μL cells/transformation cocktail and vortexed for 2 s. Transformations were incubated at 39° C. for 1 h with 250 rpm shaking. Transformations were resuspended in 750 μL YPD with 1 M sorbitol and recovered at 30° C. overnight with 250 rpm shaking. The next day, transformations were centrifuged at 500×g for 5 min, supernatants were discarded, and cell pellets were resuspended in 750 YPD. Resuspended transformations were plated on YPD with appropriate selection or YNBD (6.71 g/L yeast nitrogen base+nitrogen, 0.5% casamino acids, 2% dextrose) agar plates and grown at 30° C. for 2 days. Individual colonies were patched onto YPD plates with appropriate selection or YNBD plates and grown at 30° C. overnight. Patches were used to inoculate 0.5 mL YPD with appropriate selection or YNBD precultures in 96 w blocks and grown at 30° C. for 24-48 h with 1000 rpm shaking. For assays, 0.5 mL YPD with appropriate selection or YNBD cultures containing substrate were inoculated with 2 μL from precultures and grown at 30° C. for 2-4 days with 1000 rpm shaking with 2% glucose added every 24 h. Assay cultures were quenched by addition of 0.5 mL ethanol with 0.2% formic acid and 0.5 mg/mL pentyl-benzoic acid. Precipitates were pelleted by centrifuging at 4600×g for 10 min and then 200 μL was transferred to fresh plates, sealed, and analyzed via HPLC.
All samples were quenched with equal volume of EtOH containing 0.2 mg/mL internal standard (3,5-Diisopropyl-2-hydroxybenzoic acid CAS #2215-21-6) centrifuged, and clarified solutions were analyzed by HPLC-MS
• Column: 2.1×50 mm COSMOCORE PBr (Nacalai USA, Inc.) • Mobile Phase: A; 0.1% formic acid in water, B; 0.1% formic acid in acetonitrile • Flow: 0.45 mL/min • Temp: % 50 Celsius • Gradient: 20%B at 0 min, 70%B at 2.3 min, 89% B at 4.2 min, 20% B at 4.3 min, 20%B at 6 min

[5] = 2% glycerol, strain sCL-SE-0128

B1: GPS1.1-F11-MPT4: fusion of GPS1.1 and MPT4 via F11 linker, SEQ ID NO: 16 (protein)
chain: MSKAKFESVFPRISEELVQLLRDEGLPQDAVQWFSDSLQYNCVGGKLNRGLSVVDTYQLLTGKKELDDEEYYRLALLGWLIELLQAFWLVSDDIMDESKTRRGQPCWYLKPKVGMIAIWDAFMLESGIYILLKKHFRQEKYYIDLVELFHDISFKTELGQLVDLLTAPEDEVDLNRFSLDKHSFIVRYKTAYYSFYLPVVLAMYVAGITNPKDLQQAMDVLIPLGEYFQVQDDYLDNFGDPEFIGKIGTDIQDNKCSWLVNKALQKATPEQRQILEDNYGVKDKSKELVIKKLYDDMKIEQDYLDYEEEVVGDIKKKIEQVDESRGFKKEVLNAFLAKIYKRQKGGAEAAAKEAAAKAGGSGGGSGGGGSGGSGGGGSGGGGSMSDNSIATKILNFGHTCWKLQRPYVVKGMISIACGLFGRELFNNRHLFSWGLMWKAFFALVPILSFNFFAAIMNQIYDVDIDRINKPDLPLVSGEMSIETAWILSIIVALTGLIVTIKLKSAPLFVFIYIFGIFAGFAYSVPPIRWKQYPFTNFLITISSHVGLAFTSYSATTSALGLPFVWRPAFSFIIAFMTVMGMTIAFAKDISDIEGDAKYGVSTVATKLGARNMTFVVSGVLLLNYLVSISIGIIWPQVFKSNIMILSHAILAFCLIFQTRELALANYASAPSRQFFEFIWLLYYAEYFVYVFI
modifications: GPS1.1-F11-MPT4, geranyl diphosphate synthase, membrane-bound prenyltransferase fusion protein
B1 showed a CBGA ([1]; 2% glucose, strain sCL-SE-0128) of 200 ± 3 µM, an FCBGA ([1]; 2% glucose, strain sCL-SE-0128) of 24 ± 1 µM and a CBGA/FCBGA ([1]; product ratio) of 8.2. The CBGA [2] was 55.9 ± 26.4 µM, the CBGVA [3] was 45 ± 2 µM and the FCBGVA [3] was 0 ± 0 µM. It also gave a CBGA [4, 5] of 393 ± 41 µM, an FCBGA [4, 5] of 60 ± 5 µM and a CBGA/FCBGA ([4]; product ratio) of 6.6.
